In patent US20220010284A1 (TRUSTEES OF PRINCETON UNIVERSITY, published 2022):

What was measured:
[1] = system: Gp59 (cI repressor, phage VP882) (Vibrio phage VP882); assay: cell_activity; details: Pq-lux in E. coli, arabinose induced; direct binding inferred
[2] = target: T1, lambda HALO-cI (HIS-HALO-cIlambda) (phage lambda, UniProt P03034 2-237); assay: confocal microscopy of HALO-cI localization in E. coli co-expressing Qtip
T1 construct: also called lambda cI; lambda repressor; not shown: N-terminal HIS-HALO tag and linker from vector pH6HTN
T1 sequence: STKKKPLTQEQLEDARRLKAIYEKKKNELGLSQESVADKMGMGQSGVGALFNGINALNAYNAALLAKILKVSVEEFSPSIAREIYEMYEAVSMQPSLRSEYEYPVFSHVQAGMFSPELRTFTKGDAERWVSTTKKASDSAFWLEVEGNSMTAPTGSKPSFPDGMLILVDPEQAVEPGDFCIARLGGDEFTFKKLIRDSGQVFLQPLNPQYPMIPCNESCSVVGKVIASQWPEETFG

[3] = target: T1, lambda HALO-cI (HIS-HALO-cIlambda); assay: confocal microscopy of HALO-cI localization in E. coli with induced orf584

Pq (q/gp62 promoter)
activity (fold repression) [1]: 140

B1: Qtip (Gp55 of phage VP882, quorum triggered inactivator of cI protein) (other)
chain: MCDFCSEHIDSLDALQSSLEKGTAIIELLDTALSAGIEVSPRVVSCALSAAHQHLQVSEKINRSLQIGCGSKEVLRLVD
notes: also called phage VP882 Qtip; pTetA-qtip
binding result [2]: no binding

B2: ORF584 (Qtip-like protein of phage MJ1) (other)
chain: MDLRVSNAKDLLDKFEEKAVQMESISQLLANAPEDLTLATVQGSLSALASIARDAGEAADRLRTISSAEG
notes: also called phage MJ1 orf584; pTetA-orf584
binding result [3]: no binding
